# Laboratory results taken from paper PMC5981469.
# Molecular target: envelope protein domain III from dengue virus serotype 2 (DENV2 DIII) (dengue virus serotype 2)
# Test: ITC
Kd,other,stoichiometry N,Substance
12.8 nM,-1.89 kcal/mol,1.04 sites,scFv4E11 bearing the AlaH55Glu mutation
28.7 nM,-1.78 kcal/mol,0.99 sites,scFv513 bearing the single mutation GluH55Ala
1.64 nM,-4.28 kcal/mol,1.01 sites,"single-chain variable fragment of humanized monoclonal antibody 513 (scFv513), wild type"
30.7 nM,-2.09 kcal/mol,0.96 sites,"single-chain variable fragment of murine monoclonal antibody 4E11 (scFv4E11), wild type"
